According to the supplement of paper PMC12042874:
± gives the uncertainty stated by the source.

Assay: amyloid nucleation score (Sup35N fusion, yeast selection) (log enrichment); library NNK1; higher = more nucleation; inactive = no reads after selection
Summary of the method: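 Output and input plasmid inserts were sequenced by Illumina after psi-negative yeast carrying Sup35N fused to peptides of 20 random codons had been induced 24 hours with 100 μM copper sulfate and grown 7 days at 30°C on medium lacking adenine and uracil. The nucleation score is the DiMSum log enrichment of output over input reads, centred on the mode score of non-aggregating sequences. Sequences with under 100 input reads were excluded.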

Substance | amyloid nucleation score
ACARTTDIFV | -1 ± 1.1
LSVNWFGCTWQNHKEGIGRN | 1.79 ± 0.12
QVRRRVGILRLWFEKWVIGR | 0.372 ± 0.77
GWVLCRGSLFIWWFWTSLRL | -0.106 ± 1.2
PYVGHVGVKRDSNCK | 0.206 ± 1.1
SSSFTSNSFLLLLWSYKDMF | 1.16 ± 0.21
NFVSYTFLCCGCVVLILVTS | 0.114 ± 0.28
WSPNNTISNGMTKVWASGRL | 0.78 ± 0.56
RWLDYYADNARHVSQTLRRR | -0.575 ± 0.64
ILLMSSGEDYSHTGAP | -0.06 ± 0.76
NIGIMNFIVLAFLQ | 6.529 ± 0.062
SWSSVQSAVKGHPLGGNTGR | -0.72 ± 0.74
PLARRVSAHILVRMNYRNFM | -0.048 ± 0.37
PIEHDEWLTVMVYCDGRLLA | -0.894 ± 2.4
FDDCFSLLIVPDSTVITKEQ | 0.444 ± 0.4
ITNCEAEEPDCWPDE | -0.357 ± 0.35
FKLWQVFRKSSMFQRGWGIG | 0.462 ± 0.78
YSLAMRLVPGPPQDENHTVN | -1.94 ± 1.8
ILVSQCRRLVYFVGSVCFST | 0.622 ± 0.53
ISFLFMCYLWQGNNS | 6.24 ± 0.066
LNNHETFFGFVDVSGSAIS | 0.272 ± 0.26
YNNLIPTYHHWGSFHMV | 1.32 ± 0.68
QYLLFGYNYNAWERRDLALW | 0.354 ± 0.22
WKKGRMMIKSQSGGLSQVWG | 1.05 ± 0.59
AFLIIMSGSGNCICLRSLVS | -0.385 ± 0.3

Substance | amyloid nucleation score
DWSSRVFPGSLGTKAGSHA | -1.58 ± 1.4
HVGQAVSSCDSNLE | -0.365 ± 0.59
YNAARLFPYVNVWGII | -0.305 ± 1.3
NMVLRFQCLWFCFISIPF | 3.16 ± 0.14
MHTKRTTDNKYGSY | -0.208 ± 0.38
VMDYYTMFFEMPRGRALIAN | inactive
ATGTSWYVPGRVGLCGYWLI | -0.153 ± 0.23
AFVIFVYNKSIAQIWHFRGY | -0.797 ± 0.37
RSFVNARSSYDVGFFGWNGC | 2.29 ± 0.14
EICMRPY | -0.081 ± 1.1
NSFRAAHWSEMVPAELGRSV | -0.513 ± 0.41
HRLDLSCSWNMNKVRGDWCS | -0.058 ± 0.27
EPGSLTESKSFYFLSCPTTR | 0.808 ± 0.7
LDETIQSNRDTHLCQFA | -0.29 ± 0.56
ECTRSGVFSCNSWIKYESSM | -0.145 ± 0.31
NAYRYMCRCGFLSLRAGWRV | inactive
MWNRFWLLDALLWGNYLSQS | 0.043 ± 0.33
PVLRTSWTCWA | -0.254 ± 0.6
SVLRRQDFTKLLMFRSGPLG | 0.424 ± 0.38
LIENTGLHRENISRAPGGR | -0.469 ± 0.83
VAATGNYIIIDNVRLVHAFG | -0.987 ± 0.67
SARYL | 0.496 ± 0.7
NYLGRVLFFYNWFDKQYRSK | 5.878 ± 0.048
NVIVKDLVLDNTFCVARVQA | -0.639 ± 0.42
DLAHYAW | 0.286 ± 0.45

Substance | amyloid nucleation score
ILWLFSGAWLYYSVLYCL | -0.076 ± 0.51
EMYKTRAFLSRKYMRHLLFN | -0.316 ± 0.39
YSRLRVCTNSAMLELGFS | 1.03 ± 0.26
YAPWGGKNSRYAGSVM | 0.701 ± 0.33
WVVVDTLVRTGGCCWGYWKT | 1.91 ± 0.27
MQWPYCGMTFCYTW | -0.047 ± 0.57
WVPMDVF | 1.61 ± 0.35
ADLSISRWCLCGRNALGLFF | 5.12 ± 0.07
FASDRLYWTWK | 0.255 ± 0.53
ADIPCQNCVSYVRYFGLNVI | -0.094 ± 0.48
FKYTHIETVIQVLYFRTWSY | -0.485 ± 0.33
LVYRCASRRVSNSFMLCW | -0.542 ± 0.62
SWYCGTASLVAKAVADRAGD | 0.062 ± 0.5
LAYGWKFDNSCLL | 1.29 ± 0.68
PLYSYADEVVDGKGSCERNC | 0.946 ± 0.5
WINFMSQWDPLGRQYVWHIQ | 1.81 ± 0.36
DSMKN | 1.39 ± 0.13
GTKNLCDYIWPGPPGSVVRN | -0.159 ± 0.56
ATLLFRFV | 0.831 ± 0.64
LCSHAIFCSSCGRFVLMEAC | inactive
LMTPEKVNEGATDRLRLFRN | -0.323 ± 0.68
NRKRFHGMNDASAAYFREVC | -1.33 ± 2.7
VRGHKWVAWNWMRVARAEQE | -0.257 ± 0.99
RSQRGRPWEGGLSTSLGVRR | -0.736 ± 1.2
MTSCDWTTTKSSDVAPDWRM | 0.424 ± 0.52

Substance | amyloid nucleation score
YWNMTCNTV | -0.139 ± 0.52
DKELSFAKGACSKFSDSFRA | -1.45 ± 1.1
VFGVKVRDCASANGVFGWSS | -0.14 ± 1.4
KSMHEVWWLLQSEGERDL | 0.712 ± 0.49
CFPDICWHSVK | 0.125 ± 0.79
PIKHCRRRNTDRRKTGMSQV | -0.447 ± 0.62
LTLKTSNHFIYLSLLYIRVV | -0.03 ± 0.3
PRVQRPPKVRTAELTTGPSQ | -0.423 ± 0.37
RKASWRWMSSMSNVGWTCPN | 4.67 ± 0.12
TLCQCKLT | -0.286 ± 0.67
QLRAYEFGWETREELNSRPY | -1.64 ± 2.4
MSRMFRVLHRVLSSW | -0.538 ± 1.2
YVVNGYSICGFDAEVIVLQL | 1.19 ± 0.18
SVSVSCFVV | inactive
SSMLSISVFEWITFRWR | 0.181 ± 0.58
RLYPL | 0.908 ± 0.34
KCFSGYWVLARLRVKFLRVG | -0.275 ± 0.53
NRLGLGPVSSICGR | -0.339 ± 0.81
WSSPQEQT | -1.59 ± 1.5
LIIKEFITLLSPCWELLRIR | 0.901 ± 0.9
NWMCKHSVGP | 0.665 ± 0.72
AVFHRREVRELAHRQPLLPI | 1.03 ± 0.66
RKLFAY | inactive
GLMWKAN | 0.537 ± 0.67
LIHRA | -0.041 ± 0.32

Substance | amyloid nucleation score
CLLRTRFWR | 0.364 ± 0.56
WTTMFAFAF | 1.42 ± 0.44
CDNRRNFSSWVVDISKYITI | -0.946 ± 0.57
SSCKCRCGFD | -0.699 ± 0.67
DIALMWLLLVHRDYT | -1.07 ± 0.76
LVFSRYYRCLFTIDF | 3.62 ± 0.11
AFVTSRPYWGNSVVEAHLVG | 1.69 ± 0.19
DLVSVHHVNRLRCWSGCLCE | -0.532 ± 0.51
DVVSFSKVCVVCGLSWSASY | 6.662 ± 0.06
LEGITELWRVMSYLMMTMVR | -0.457 ± 1.1
NSASYII | -0.048 ± 0.24
GVGRRMSMWYVCDAGWEAWR | 3.16 ± 0.094
SWSSGGNFARFIQYVPATHA | 0.117 ± 0.72
RWYSHFSAMQWGATLCFWGL | 2.64 ± 0.11
LMFLGWSNRKMTSHSIMTVL | 0.293 ± 1
VAISQCLNNSNSRNIIVVKW | 1.69 ± 0.34
KLVDAGFVD | 0.759 ± 0.35
HNYVWCSPC | 7.694 ± 0.07
IMVTDKLSTCAETYIDISW | -0.164 ± 0.75
NTFYCCFLFFY | 6.517 ± 0.044
SVWFWFSKGWFSLCWAFFEK | 0.428 ± 1.2
RLTVSGVTLGSVTHAFCGAP | 0.267 ± 0.67
SRNLLPSDTSHQVMYPVSTK | 0.568 ± 0.28
QGRTRSYY | -0.301 ± 0.82
KRVANDWEYGFGYNPTVVGR | 0.295 ± 0.46

Substance | amyloid nucleation score
LVSDSYNSLSLQDNLALLLI | 0.261 ± 0.4
TEKAPGTGAKQANSKSSAYA | inactive
ITLVDVVG | 0.082 ± 0.34
VLKGNKRRVLNAWVAYVLRS | 0.273 ± 0.35
PLSWTNMKYKGSCVYFMVFF | -2.14 ± 2.4
SVVFLQRFLDR | -0.564 ± 1.2
KHSPSDYPERLHHNFYIERI | inactive
VGVRRDTCSPRQVLGHTS | 0.301 ± 0.52
LLLNTLLWSL | -1.83 ± 2.7
TLESCGW | 0.773 ± 0.22
DAEWF | 0.393 ± 0.27
CNYCIWPARFVVIHDAMCVS | -0.98 ± 1.1
RIKHERLIVFVMNLDINQ | 4.3 ± 0.096
NCEFIVWGVSSNFEMVFGLM | -0.267 ± 0.9
LKTRALASGWEAECADRGGV | -0.056 ± 0.64
GNLRNMLMTYSSSVGNKLIF | -0.344 ± 0.57
RSDDKVSRSVGDHCTVGVLR | 6.441 ± 0.061
MCGDIPQ | 0.35 ± 0.74
NLLSALNMVVFHNLEFYVIF | 2.58 ± 0.25
AGMCSIC | 0.155 ± 0.36
LMFKGEYCWLVIWQGLTWGV | 0.278 ± 0.52
RYRSVVIPRVHAIEVIYAAC | -0.378 ± 0.97
CNDISISFYMRTGACYWRVW | -0.499 ± 0.46
LRRLEGLMSLGSFKFSPYGP | 0.227 ± 1.2
LNASGIVVCFYSSDNTCTYE | 4.49 ± 0.089

Substance | amyloid nucleation score
MRTVIITCCRTFECPMERCS | -2.56 ± 1.4
VMLAGSDWLNGFRAESFCGI | -1.35 ± 2.1
ARGHGFQPVGPLGSVILMAR | -0.302 ± 0.68
SNSMLISYSCEFTWGVGKVL | 0.242 ± 0.4
HGMIRWYSYTSCHSYKVSGH | -0.021 ± 0.33
ASLTDVYIDELRLSNEGTWN | 1.94 ± 0.65
VVCARVLRWEVGYVFGKIER | inactive
GDTYHNYVWRLDACSTLPWY | -0.547 ± 0.53
INLTNIHFCHVNFVVGALKP | 5.98 ± 0.079
VIRCRKFRTVWILFLAISLV | inactive
VNSSPFFMYKGVHFTWTYYS | 4.51 ± 0.1
RQLTSVCYKSVDGE | 0.516 ± 0.93
PSGTQCTAE | -0.047 ± 0.65
LWPKVLMVFTSM | 1.67 ± 0.15
QVNRSVDFPSRFIKSY | -0.687 ± 1.4
VYRSHLRTNFSTFTSMSSVL | -0.626 ± 1.4
VDVAVVDTNLSLNMACKGWT | 1.21 ± 0.45
ADTCGCGWDSRRKCFMGGYS | -0.187 ± 0.52
SFFSSVVDF | 0.2 ± 0.63
HHAFFDIPRVRGEYECFAGI | 0.192 ± 0.25
WSGTDRMCSVMTYS | -0.841 ± 0.51
